Source: patent US12576170B2, “Rk polypeptide radiopharmaceutical targeting HER2 and preparation method thereof” (BEIJING GILUNTIDE PHARMACEUTICAL CO., LTD., priority 2019, dated 2026)

Assays:
breast cancer = format: in vivo, human patients
Procedure: SPECT/CT imaging of ^99mTc-HYNIC-PEG4-(Aoc-rk)2 in breast cancer patients: with approval by the Ethics Review Committee of the Peking Union Medical College Hospital and informed consent, 20 female patients with suspected breast cancer by molybdenum target X-ray or ultrasonography were recruited and subjected to SPECT/CT imaging and PET/CT imaging 1 week before surgery. The patients were administered intravenously with 11.1 MBq (0.3 mCi)/kg body weight of ^99mTc-HYNIC-PEG4-(Aoc-rk)2 30 min before SPECT/CT scan, and 5.6 MBq (0.15 mCi)/kg body weight of ^18F-FDG 60 min before PET/CT scan.

SKBR3 breast tumor model = tested on: SKBR3 breast tumor model; design: species or system NOD SCID mice; settings: mouse, in vivo
Procedure: (§1) Thus the polypeptide is suitable for delayed imaging and more beneficial for tumor diagnosis.
SPECT/CT imaging: Different tumor models with similar tumor sizes were selected, administered with 1 mCi ^99mTc-HYNIC-PEG4-(Aoc-rk)2 through tail vein, and subjected to SPECT/CT imaging 0.5 h later. The SPECT images were reconstructed after imaging, fused with the CT image to give 3D images of the mouse, and the tumor lesion was extracted by In VivoScope software for quantitative analysis.
Preparation of ^99mTc-HYNIC-PEG4-(PEG4-rk) 2:500 μL of a mixture containing 5.0 mg of trisodium triphenylphosphine-3,3′, 3″-trisulfonate (TPPTS), 6.5 mg of tricine, 38.5 mg of disodium succinate hexahydrate, 12.7 mg of succinic acid and 50 μg of HYNIC-PEG4-(PEG4-rk)2 was prepared in a 10 mL vial and lyophilized. 1.0-1.5 mL of Na^99mTcO4 solution (10-35 mCi) was added to the lyophilized powder. The vial was incubated in a water bath at 100° C. for 20-25 min, and cooled at room temperature for 10 min after the reaction is completed to give the rk polypeptide radiopharmaceutical. The rk polypeptide radiopharmaceuticals were sampled for radioactive HPLC analysis. The HPLC was conducted in an Agilent 1260 HPLC system equipped with a YMC-Pack ODS-A analytic column (250× 4.6 mm, I.D. S-5 μm, 12 nm), and a 20-min gradient elution was performed at a flow rate of 1 mL/min, wherein the mobile A phase was deionized water (containing 0.05% TFA) and the mobile B phase was acetonitrile (containing 0.05% TFA). The elution gradients were 90% A and 10% B at beginning, and 30% A and 70% B at 20 min. The labeling rate of ^99mTc-HYNIC-PEG4-(PEG4-rk)2 was >95%, and the radiochemical purity was >98% as measured by a Sep-Pak C18 column.

[1] = tested on: HER2-negative EGFR-positive MDA-MB-468 breast cancer model; assay: imaging in HER2-negative/EGFR-positive tumor model; format: in vivo; settings: FIG. 13
From the text: Since EGFR and HER2 are members of the same family and have similar structures, they are difficult to be distinguished by targeting molecules. As such, false positives and false negatives are inevitable when detecting tumors.

[2] = tested on: MCF7 of no HER2 expression; assay: cell binding assay, MCF7 cells; design: species or system Human
Procedure: (§2) The rk polypeptide radiopharmaceuticals were sampled for radioactive HPLC analysis. The HPLC was conducted in an Agilent 1260 HPLC system equipped with a YMC-Pack ODS-A analytic column (250× 4.6 mm, I.D. S-5 μm, 12 nm), and a 20-min gradient elution was performed at a flow rate of 1 mL/min, wherein the mobile A phase was deionized water (containing 0.05% TFA) and the mobile B phase was acetonitrile (containing 0.05% TFA). The elution gradients were 90% A and 10% B at beginning, and 30% A and 70% B at 20 min. The labeling rate of ^99mTc-HYNIC-PEG4-(Aoc-rk)2 was >95%, and the radiochemical purity was >98% as measured by HPLC with a Sep-Pak C18 column. The results of a binding affinity assay of HYNIC-PEG4-(Aoc-rk)2 to HER2 are shown in FIG. 3: Human breast cancer cells SKBR3 of high HER2 expression and MCF7 of no HER2 expression were used as experimental samples, and ^99mTc-HYNIC-PEG4-(Aoc-rk)2 was used as a radioactive ligand specifically binding to HER2 receptor. In this cell binding assay, the binding capacities of ^99mTc-HYNIC-PEG4-(Aoc-rk)2 to SKBR3 and MCF7 were measured, with a blocking group treated with excessive HYNIC-PEG4-(Aoc-rk)2 to verify the binding specificity of ^99mTc-HYNIC-PEG4-(Aoc-rk)2 to SKBR3.

HER2 [3] = target: T1, HER2 (Homo sapiens, UniProt P04626); assay: correlation between uptake in tumor and HER2 expression level in tumor models; format: in vivo, mouse; design: tumor cells with different HER2 expression levels, including human breast cancer cell lines SKBR3, MCF7 and MDA-MB-468; endogenous in cells; host or cells: SKBR3, MCF7, MDA-MB-468, HT29, BxPC3 human tumour cells as xenografts in mice; settings: SKBR3 (high), HT29 (moderate), BxPC3 (low HER2) tumor models
From the text: as §1
Correlation between uptake of ^99mTc-HYNIC-PEG4-(Aoc-rk)2 in tumor and HER2 expression level: tumor cells with different HER2 expression levels, including human breast cancer cell lines SKBR3, MCF7 and MDA-MB-468, human colorectal cancer cell line HT29 and human pancreatic cancer cell line BxPC3, were selected and subjected to flow cytometry for quantitative analysis of HER2 expression in cells. Then the tumor models of the cells were subjected to SPECT/CT imaging, and the uptake in tumor was quantitatively analyzed. Finally, the correlation between HER2 expression and the uptake in tumor was investigated.
Flow cytometry: The cells were digested using 0.25% EDTA/pancreatin, blocked for 15 min, centrifuged, washed with PBS, and divided into a treatment group and a control group. […] The two groups were incubated for 0.5 h in the dark at 4° C., washed for 3 times using cold PBS, and analyzed on a flow cytometer. The mean fluorescence intensity (MFI) of the bound antibody on each cell was calculated through a standard flow cytometry curve. […]
Analysis of correlation between HER2 expression level and uptake in tumor: the linear relationship between HER2 expression level (MFI) and uptake in tumor (% ID/g) was plotted using prism 7.0 software, and the R^2 value was calculated.

HER2 [4] = target: T1, HER2; assay: HER2 binding specificity detection at protein and cell level; settings: protein and cellular levels, FIG. 12
[5] = tested on: SKBR3 of high HER2 expression; assay: cell binding assay, SKBR3 cells; design: species or system Human
Procedure: as §2

[6] = tested on: HER2-positive model (SKBR3 breast tumor model); settings: in vivo
From the text: This is especially critical for breast cancer tumors in situ in the thorax, since the contrast agent ^99mTc-HPArk2 of the present invention is more advantageous in imaging breast cancer lesions in situ.
The specific difference of in vivo pharmacokinetics between the present invention and the radiopharmaceutical disclosed in Patent No. CN 109045313 A is shown in FIG. 11. FIG. 11 illustrates the uptake in tumor and comparison of data corresponding to the images in FIG. 10. […] FIG. 11 panel B illustrates the results of calculations from FIG. 11 panel A. The uptakes in tumor and the organs were compared and analyzed. […] As is also seen in FIG. 10, a smaller tumor was visualized by ^99mTc-HPArk2 imaging, and the imaging effect is guaranteed. […] Therefore, the contrast ratio for imaging is better, and particularly, the low uptake in heart and liver in the chest cavity may facilitate clear imaging of the in-situ tumor of the breast cancer.

[7] = design: species or system NOD SCID mice; settings: mouse, in vivo, iv
Procedure: The biodistribution of ^99mTc-HYNIC-PEG4-(Aoc-rk)2 in tumor-bearing mice: NOD SCID mice bearing SKBR3 tumor were randomized with 4 mice in each group. Each group of mice were injected with different ^99mTc-labeled polypeptides via tail vein, and sacrificed at 30 and 60 min after injection. Samples of blood and major organs were collected, weighed and measured for radiological counting, and the decay-corrected percent injection dose rate per gram of tissue (% ID/g) was calculated. The results of the experiment are shown in FIG. 8, in which the uptake in tumor at 30 min was 3.7% ID/g, and the uptake was low in blood and organs other than kidney.

water solubility = format: physicochemical; settings: compared with refvffly polypeptide

**Q.** Which “patients with lymph node metastasis in whom metastasis was shown” value (breast cancer; 5 of 6 patients) does the source give for `CC(C)C[C@@H](NC(=O)[C@@H](CCCNC(=N)N)NC(=O)[C@@H](CC(C)C)NC(=O)[C@@H](CCC(=O)O)NC(=O)[C@@H](Cc1c[nH]c2ccccc12)NC(=O)[C@@H](CC(N)=O)NC(=O)[C@@H](CCCNC(=N)N)NC(=O)CCCCCCCNC(=O)CC[C@H](NC(=O)CCOCCOCCOCCOCCNC(=O)c1ccc(NN)nc1)C(=O)NCCCCCCCC(=O)N[C@H](CCCNC(=N)N)C(=O)N[C@H](CC(N)=O)C(=O)N[C@H](Cc1c[nH]c2ccccc12)C(=O)N[C@H](CCC(=O)O)C(=O)N[C@H](CC(C)C)C(=O)N[C@H](CCCNC(=N)N)C(=O)N[C@H](CC(C)C)C(=O)N[C@H](CCCCN)C(=O)O)C(=O)N[C@H](CCCCN)C(=O)O` [^99mTc-HYNIC-PEG4-(Aoc-rk)2, metal not drawn] here?
**A.** 83%

**Q.** And the “patients with pathologically diagnosed breast cancer whose tumor was accurately imaged” value (breast cancer; 14 of 15 patients, 11.1 MBq/kg i.v., 30 min before scan)?
**A.** 93%

**Q.** And the “adverse effects during the clinical trial” value (breast cancer; human, in vivo)?
**A.** No adverse effect related to the radiopharmaceutical was found

**Q.** And the “tumor visualization in delayed imaging” value (SKBR3 breast tumor model)?
**A.** still clearly visualized

**Q.** And the “uptake in tumor (SPECT/CT)” value (SKBR3 breast tumor model)?
**A.** clearly visible and significantly higher than that of the monomer

**Q.** And the “uptake in tumor, Herceptin blocking group” value (SKBR3 breast tumor model)?
**A.** substantially unchanged

**Q.** What about the “uptake in tumor, cold peptide blocking group” value (SKBR3 breast tumor model) of the same compound?
**A.** significantly reduced uptake in tumor

**Q.** What about the “whole-body background (SPECT/CT)” value (SKBR3 breast tumor model) of the same compound?
**A.** clean whole-body background

**Q.** What about the “imaging result in HER2-negative EGFR-positive model” value [1] of the same compound?
**A.** negative result

**Q.** What about the “binding rate per 10^5 cells” value [2] of the same compound?
**A.** 1.14 % per 10^5 cells

**Q.** And the “relation of uptake to HER2 expression level (SPECT/CT)” value (HER2 [3])?
**A.** linearly related to the expression level of HER2

**Q.** And the HER2 specificity (HER2 [4])?
**A.** good specificity at both protein and cellular levels

**Q.** And the “binding rate per 10^5 cells, blocking group” value ([5]; SKBR3 blocking group treated with excessive HYNIC-PEG4-(Aoc-rk)2)?
**A.** 1.24 % per 10^5 cells

**Q.** What about the “binding rate per 10^5 cells” value ([5]; SKBR3 cells) of the same compound?
**A.** 4.49 % per 10^5 cells

**Q.** What about the “hepatic uptake (FIG. 10)” value [6] of the same compound?
**A.** lowest

**Q.** What about the “ratios of tumor to normal tissues such as blood, heart, liver, spleen, intestine and stomach” value [6] of the same compound?
**A.** relatively higher

**Q.** What about the “uptake in blood, heart, liver, spleen, intestine, stomach, bone and other tissues” value [6] of the same compound?
**A.** relatively lower

**Q.** And the “uptake in tumor (biodistribution, FIG. 11)” value [6]?
**A.** relatively higher uptake in tumor than those of ^99mTc-HP4-ref and ^99mTc-HP24-ref

**Q.** And the “uptake in tumor (image quantification, FIG. 10)” value [6]?
**A.** higher uptake in tumor than that of ^99mTc-HP24-ref, with no significant difference from ^99mTc-HP4-ref

**Q.** And the “uptake ratio of tumor to liver” value [6]?
**A.** highest

**Q.** What about the tissue uptake at 0.5 h [7] of the same compound?
**A.** 3.7 %ID/g

**Q.** For `CC(C)C[C@@H](NC(=O)[C@@H](CCCNC(=N)N)NC(=O)[C@@H](CC(C)C)NC(=O)[C@@H](CCC(=O)O)NC(=O)[C@@H](Cc1c[nH]c2ccccc12)NC(=O)[C@@H](CC(N)=O)NC(=O)[C@H](N)CCCNC(=N)N)C(=O)N[C@H](CCCCN)C(=O)O` [rk polypeptide, Arg-Asn-Trp-Glu-Leu-Arg-Leu-Lys], which water solubility (water solubility) is on record?
**A.** superior to that of refvffly polypeptide
